A short description of the data set: soluble on expression in E. coli; label from the status in PepcDB or PDB records.
With “MSLKFVGLVGSNAEQSYNRKLLEYIRKQFKLKFELELLEIDEVPMFNQDQSWKDSFQLRLLYNKIIRADGVIIATPEHNHTITAALKSVLEWLSCEVHPFENKPVMIVGASYYDQGTSRAQVHLRKILDAPGVNAYTLPGNEFLLGKAKEAFDDNGNIINQGTVDFLETCLDNFMSYVGVVSKLQKPKPIEPEDLDCNHPIATTITEVDPDDPEWVEKVAEITGAVSGDAYVKLDHGILTVDQINMFLKAMPFELTYADDNNQFLYYNNAHQDPDTMYAKRIPEQSGNRLSTVHNSLPAGRMKNVEWVIGTLRNGNQEYVRTLIPSPNPAVLNTHNYQAMYYDDGSFAGINEIVFNFKPWLDWYLQTTGQRLVGGEGHHHHHH”, the “soluble on expression in E. coli” value is recorded as “soluble”. The entry for “MSLKIAITGASGFVGSHLSSQFGGSHTLLPLGRRELSDPTKLSSLLEGVDWIINLAGAPIIAKWSESYKKVLYSSRIETTRSLLLALKECPTKPSLFTSTSAIGIYDNQGTYAEGDLALAQDFLGKLAKDWEEEALKAQDLGIRTVVFRFGVVLGKGGGMMEKLRLPFSLGLGGVIGDGKQKFSWIHLHDIAKAMEFAWSTPSLSGIYNLTAPSPTTNEAFTKLYGSLIHRPTLLPVPLWALQILFGEGAKVLSDGQAAIPERLLQAGFEFEYPTLEKALKEIISEGHHHHHH” is “soluble”; for “MSLKIGIVGPGAIGLLYTFYLQKSNQDVTLFTRTAKQAEELNETGVTCIRDGRCETVYPPVLPIESMVAQNLDYIFISVKQYHIDDVLPFVEGASSLIFLQNGMSHLQKMLKIGSENIAVGIVEHGAKKEGGHIVHHTGIGVTKFGVVCGQSIHFKKIFRYFPVTYFPVQIETDWEEIMHKKLVVNVCINPLTALLGVKNGELITNRFFYQMMEQVFQEVAFLIRGEKEMVWQMVRNVCEGTSRNTSSMLADVRANRQTEINAIVGYVLEEAKKQQLPVPTLQFLFDAIKGLETREGHHHHHH” it is “not soluble”.

“MSLKIHCLKLKNKELNKEVAFYLTSIIRQALKNTEYKDQISSTVLPDIKIKLPIDSRGTPDWNYMERYRDREGHHHHHH”: the “soluble on expression in E. coli” value is “soluble”. For “MSLKIIDGNIASPLGFSADGLHAGFKKRKKDFGWIVSEVPASVAGVYTTNKVIAAPLIVTRESVKKAQKMQALVVNSGVANSCTGLQGMEDAYTMQKWTATKLKIAPELVGVASTGVIGDLMPMDTLQKGLSKLVVNGNSDDFAQAILTTDTKVKTVAVTEQFGRDEVTMAGVAKGSGMIHPNMATMLAFITCDAVISSETLQLALSQNVETTFNQITVDGDTSTNDMVLVLSNGCTLNKEILPDTPEFDKFSAMLHFVMQELAKKIAKDGEGATKLIEVEVINAPNSLDACMMAKSVVGSSLVKTAIFGEDPNWGRILAAVGYAGVDVPVDNIDIYLADIPVMLASSPVDFDEEDMQDVMRADTIKIIVDLHAGDSVGKAWGCDLSYDYVKINALYRTEGHHHHHH”, the “soluble on expression in E. coli” value was “soluble”. Take “MSLKIKHEHIRMAMNAWAHPDGEKVPAAEITRAYFELGMTFPELYDDSHPEALARNTQKIFRWVEKDTPDAVEKIQALLPAIEKSMPPLLVARMRSHSSAYFRELVETRERLVRDADDFVAVAIAGFNQMNRGGPAGNIVAVHEGHHHHHH”: the “soluble on expression in E. coli” value was “soluble”. The entry for “MSLKIKVGLIFSGIACLFLTACVNQVKQNTTFENTLTQKYCGDDFFNQNLEKIKKNDDVIYTGLNAGLIARNCGDFNKSNVFFDAVEESYKYDVDLENVSPKAAKFIGTTLLNDNIVDYDGSLYERIMVNIYKALNYMEEDDYENARVEFNRVLMRQDKAKEYFAKEIEKNRADLDKAKEDKNYDKNMNENSKVIEAQYDNLFKEFDTTKNFINPYATYLASIFFFMDKDYRKAADLFREVAIIYPKNKTIKKEAKIFKEYATKIKVKKAKKYVFVVYENGFGVVKDEFALTLPFIVDKKIISTNIALQTLKKREASFANLNINGQNTNDFVDLDNIVATEFKINMPAMIAKALAQTIIKTTLNVAVANNDSTGGWLSLATAVATAATNKADVRSWRGLPKSIAIATIENDGNLEIKDPQGNILFQKSLDKNKNALVIVRSFAPYLPASVAIMEKEGHHHHHH” is “not soluble”. Turning to “MSLKILILGGTRFLGRAFVEKALNRGYEVTLFNRGTNKEIFPEVEQLIGDRNGDVSSLENRKWDVVVDTCGFSPHHIRNVGEVLKDNIEHYIFISSLSVYKDWIPHHIKEDYILQPEPTAEQIKAVENGEVSPYEYYGALKVLCEKEAEKYWPGRVLHVRAGLLSGMFDYTDRLPYWIGRVAKGGEVLVPGRKDRPVQIVDIKDVANWGLNMAENNKAGIFNVTGPNYDLTMEELLNTCKKVTNSDAEFVWIEESFMNEHKVQPWTEMPLWIPETFSLEGETKPWKGGFSISINSAIKAGLTFRRLEDTVMDVYVWMKSIEEWELKAGISGEREKELLEKWYQEGHHHHHH”, the “soluble on expression in E. coli” value is “soluble”. The entry for “MSLKIMIVEDDRIQATSLKLKLRQLGLDDVILAENGFAALELCNKVGIDLMFCDIRMPQMDGISLLSQLSLQAPKLGVVILSAVEDTILELTHNMCSLAGFAYVDRLPKPYEVEDLQRVVEGFQKQTEPETSHKPAITLTCDEIEQAFLHDHIFNYYQPQFDFRSGAMVGVEALVRYEHPTHGMLSPAVFLPLIEQCGLHEKLFLTVLEKSVSALASIGADLQLSVNISQRNLQHSICDPILAICERYGFPASKLTLEMTEHEVYNGTPTSLANLARLRMYGVGLSIDDFGTGYASLGQLAQLPFTELKIDRSFVHDLATNYKHQQLTNMCLLLAQSLGLHCVVEGVENEETWQYLRQLGVDTCQGYYAAKPMPIAQLSELYTKNRRQCLGEGHHHHHH” is “soluble”.

“MSLKITAADVVVTSPGRNFVTLRITTEDGLTGLGDATLNGRELAVEAYLREHVAPLLLGRDAHAVEDTWQYLYRGAYWRRGPVTMAAVAAVDMALWDIKGKAAGMPVYQLLGGACRTGALAYGHASGRDIPELLDSVREHLADGFRAVRIQSGIPGLDSVYGVAASAAGDGDRYDYEPARRTGAAHPRPTEETWDTRAYLRHMPTVFEAVRHTFGPELPLLHDGHHRMTPIQAARLGKDLEPYDLFWLEDATPGEDQGALRLIREHTTTPLAIGEVFNSVHDYTTLLQERLIDYVRSAVTHTGGITAVRKLLDMAAVYGIKSGMHGPTDISPVGMAAALHLDLAVHNFGIQEYMRHAPDTLEVFRTSYRFEDGLLHPGEAPGLGVELDDGAAARFPYEPAYLPVNRLSDGTVHDWEGHHHHHH”: the “soluble on expression in E. coli” value is “not soluble”.

For the sequence “MSLKIYGVYRSRASRPLWLLAELDLPFEHVPVIQANRVAHPHGPEAPLNTASAAYLAVNPLGQIPCLEEEGLILTESLAITLHIARTQGGQLGPRSEPEDALMVSWSLFAATAVEPPALEIQLIQRSGGGTSPEGQAAIAIAAERLRRPLARLERHFAAEDYLVGGRFTVADLNLAETLRYGQAHPALLEPFPAVAAWLDRCQSRPAFRLMMERRAAEGHHHHHH”, the “soluble on expression in E. coli” value is reported as “soluble”. As for “MSLKKIANELGLSSTTVSRALNGYDDVAAETRERIIDAAKRLGYQPNSLARRLKMGRTDAIALAYPSRPRVLNNSTFLEMISWIGIELGKRGLDLLLIPDEPGEKYQSLIHLVETRRVDALIVAHTQPEDFRLQYLQKQNFPFLALGRSHLPKPYAWFDFDNHAGASLAVKRLLELGHQRIAFVSTDARISYVDQRLQGYVQTMSEAGLMPLAGYLQKADPTRPGGYLAASRLLALEVPPTAIITDCNMLGDGVASALDKAGLLGGEGISLIAYDGLPDDSLLDIAVTPIVQNTRTSVGKQIASMICDLLGGKDPKELQVLWQPEIGEGETEGHHHHHH”, the “soluble on expression in E. coli” value was “soluble”. With “MSLKKILIIDQQDFSRIELKNFLDSEYLVIESKNEKEALEQIDHHHPDLVILDMDIIGENSPNLCLKLKRSKGLKNVPLILLFSSEHKEAIVNGLHSGADDYLTKPFNRNDLLSRIEIHLRTQNYYSDLRKNDLLMLLELTETISVTRNPRRILSIIVERLIKTIDVSRCSIIGINDFGELLVLASSDLPENQEIKLDLKKYPEIEKALETQRPVVLQDITNSALMKPVKKHIEALSDNAVFVVPIIKKQNVIGTFFLRTACLQKGGITDRIFKLCQVIASISGNALENAIIFESMETNKKLLEDLSVRDSLTKLYNHQHYHSRLEDEFSRAQRYNLDLSCIFLDIDNFKNINDRYGHLAGDMVLRQIARLISQVIRKSDISARYGGEEFAICLPNTGGVAANELAERLLVMIRELSIQQLKGEHVTVSIGTSTYSNHNVASYSELLHLADDAMYEAKKSGKNRFCCSTAMEGHHHHHH”, the “soluble on expression in E. coli” value is listed as “soluble”.

With “MSLKKLITANDIREAHARGEQAMSVVLRASIITPEAREVADLLGFTITECDESIPVTASVPASVPADKTESQRIRETIIAQLPEGQFTESLVAQLMEKVMKEKQSLEQGAMQPSFKSVTGKGGIKVIDGSSVKFGRFDGAEPHCVGLTDLVTGDDGSSMAAGFMQWENAFFPWTLNYDEIDMVLEGELHVRHEGQTMIAKAGDVMFIPKGSSIEFGTTSSVKFLYVAWPANWQSLEGGSHHHHHH”, the “soluble on expression in E. coli” value is recorded as “soluble”. As for “MSLKKMSIKVPGKLFFAGEYSVTKEGNLALITTIETNFEVRISATTGKSIFKTNVGLSDFEFSLSKIEFTKENPWNFALTALKNTLSAADSFEKKSVSKILSSSPEISLEIVSDLGFGENKKGYGSSASVVCGLVNAVNQFFDFQLSLEKRFEIAAKTHFEVQGSGSMGDIAAIMYGGSVFYQNHKRVIPLEIPWATYVVQTGKAAKTSEKIKIKLSDEFYQASNELVIELATAIDIQDFALFKEKLSENQLLLLENIPEGYMTKELAIALNLLNSYPEFAAKISGAGFGENIILFAQNTQAIAEVQNKLSEYGINLEKFKVAQKNNEGHHHHHH”, the “soluble on expression in E. coli” value is reported as “soluble”. Regarding “MSLKLFPQFDGISLKDRFFLLESFKVDVLANNVYYTESSLVPFLSKMKGVLARDGNIKHYLAEGKRICVLGDVHGSPMDVSAFYDLCMLKDVQLQCFQEVGDDRGSQFTMDLSSVYVFLGDYVDRGSRGLACVLFIYVLKYLYPRNVLLLRGNHECDAMNRIYGFTKEIYKYYGSHSPIYQAIQDTFAAIPYFFRLIYLPQSLCRALERFCNRVIPSASSSTRWTNSEIMCLASMVSSVTSWAGQAGATNEAKLDDLADSQEAHMLKCRLEEESLTIFCCHGGPPCVYTEYGRQLDLYLGIDSYENILQRSLTIVDPLAGELTWNDPAPHRFKSPSTLYEPSQRRLGYRYSYDLFRTWCKHTGVDLVLRGHEVALDGVHQDFQYAFEPKQLGGPNQELEYWFSVSTLRETPRHFTVFSSSFYEHLTNHGAAAIIRFEVPVDGVAPALVIRCFTLSEGHHHHHH”, the “soluble on expression in E. coli” value is given as “not soluble”.

“MSLKLHKGIKEYECKECHRRFAQKVNMLKHCKRHTGIKDFMCELCGKTFSERNTMETHKLIHTVGKQWTCSVCDKKYVTEYMLQKHVQLTHDKVEAQSCQLCGTKVSTRASMSRHMRRKHPEVLAVRIDEGHHHHHH”: the “soluble on expression in E. coli” value was “soluble”.

Consider “MSLKLIVKIGLIVLLLMFNYQGVDADVVSSAIDRYATTTEHQDNMASDHGTLDTMSFTHSLLTGQQQVLAKLMPDDLRIRRAEELQQNFLKILIGRFSLREEILATDRAKIFPSNPIHCVSPACHYFVFTLRRILIEGHHHHHH”, for which the “soluble on expression in E. coli” value is reported as “not soluble”. For “MSLKMKPPVEKNEYYDVTFEDLTHEGAGVAKVQGFPIFVPNALPEEKAQIKVTRVKKGFAFGRLIELKEESPHRTDAPCPIYKQCGGCQLQHMTYEGQLLFKQKQVKDVLERIGKLDLSKVTVHPTLGMEDPWNYRNKAQVPVGEREGGLVAGFYQQRSHDIIDMSACLIQQSKNDEAVQAVKDICANYGVKAYNEERHKGWLRHIMVRYGVVTGEMMIVFITRTSDFPHKAKIIEDITAQFPHVKSIVQNINPNKTNVIFGNETNVIWGEEYIYDLIGDVKFAISARSFYQVNPEQTKVLYDKALEYAELQGEETVIDAYCGIGTISLFLAKQAKKVYGVEIVPEAIEDAKRNAELNGNTNAEFAVGEAETVIPKWYEEGITADTLVVDPPRKGCDEALLRTIVEMKPKRVVYVSCNPGTLARDLRVLEDGGYVTREVQPVDMFPHTNHVECCVLIKLKEEGHHHHHH”, the “soluble on expression in E. coli” value is recorded as “soluble”.

For the origin of these results see the DeepSol protein solubility set.
